Measured values: article PMC11948038, “Evolutionary Pro‐To‐Thr Mutation in the Intrinsically Disordered Domain of ANP32 Family Members Modulates Their Target Binding Modes” (Advanced Science, 2025)
Each block holds one compound with its values, some of them ahead of it. Ends that are not written are not given here.

Tests used:
[1] = tested on: Heltog cells (HeLa cells constitutively expressing Cc-GFP); test: Subcellular localization of Cc-GFP and ANP32A in Heltog cells after camptothecin; type: cell-based; conditions: 20 µM CPT, 1 or 4 h, confocal microscopy
Experimental: After 1 h or 4 h of CPT treatment, nuclei were stained by incubating cells with 1 µg mL^−1 Hoechst (Sigma‐Aldrich) for 10 min at 37 °C. Cells were then rinsed in pre‐warmed PBS at 37 °C to remove media traces, fixed by immersing the coverslips in a 4% formaldehyde (Sigma‐Aldrich) solution prepared in PBS for 10 min at room temperature, and then washed in pre‐warmed PBS at 37 °C. Cells were dried by incubating the coverslips in absolute ethanol for 2 min. Afterward, coverslips were mounted into glass slides using N‐propyl gallate (Sigma‐Aldrich), to preserve the fluorescence, and sealed with nail polish. Images were obtained in a Zeiss LSM 7 DUO confocal microscope using a 63× oil objective. For calcium phosphate transfection, 2.5 × 10^6 HEK293T cells were cultured in 150 mm diameter plates. After 72 h of growth, media was refreshed prior to transfection. For subcellular localization assays; 50,000 Heltog cells were grown over coverslips placed in 15.6 mm well plates for 24 h before transfection. DNA damage was then induced by replacing media for one containing 20 µM of camptothecin (CPT) and incubating cells for 1 h or 4 h. […] Afterwards, coverslips were mounted into glass slides using N-propyl gallate (Sigma-Aldrich), to preserve the fluorescence, and sealed with nail polish. […]

[2] = target: T1, cytochrome c (Homo sapiens, UniProt P99999); test: ITC titration of full-length ANP32A or ANP32A1-167 with reduced Cc; type: binding; conditions: for Kd: relative error 20%; for n (reaction stoichiometry): error 0.03; for ΔG: error 0.1 kcal/mol
T1 construct: obtained by immunizing male rabbits with full-length recombinant Cc; made in house; host or cells: E. coli BL21 (DE3)
Experimental: Isothermal titration calorimetry (ITC) experiments were performed using a Nano ITC Low Volume instrument (TA Instruments, USA). The reference cell was filled with distilled water. Titration experiments between reduced Cc and ANP32A or ANP32A1‐167 consisted of 17 injections of 2.91 µL of a 400 µM reduced Cc solution into the sample cell containing 50 µM ANP32A construct. Both Cc and ANP32A proteins were dialyzed against 10 mM sodium phosphate buffer pH 7.4. Assays performed at moderate ionic strength used the same experimental setup, but proteins were dialyzed against 20 mM sodium phosphate pH 7.4 with 50 mM NaCl. Assays using ANP32A230‐249 or ANP32B232‐251 peptides were performed by titrating 1 mM peptide solution onto 110 or 150 µM reduced Cc solutions, respectively, or onto 100 µM HuR106‐326 solution, following the same injection configuration as described for ANP32A proteins. Cc and HuR106‐326 solutions were dialyzed against 10 mM sodium phosphate buffer pH 6.3; peptides were dissolved in the same solution. The stirring speed was set to 200 rpm for HuR106‐326 titration experiments and to 300 rpm for Cc titration experiments, to ensure cell homogeneity. ANP32A, ANP32A230‐249 and ANP32B232‐251 titration data were analyzed using Origin 7.0 (OriginLab), employing a single‐ligand binding site model or a two‐ligand binding sites model. In the last case, no binding cooperativity was observed. ANP32A1‐167 titration data was processed and analyzed using NanoAnalyze software (TA instruments).
ITC experiments were performed using a Nano ITC Low Volume instrument (TA Instruments, USA). The reference cell was filled with distilled water. Titration experiments between reduced Cc and ANP32A or ANP32A1-167 consisted of 17 injections of 2.91 µL of a 400 µM reduced Cc solution into the sample cell containing 50 µM ANP32A construct. Both Cc and ANP32A proteins were dialyzed against 10 mM sodium phosphate buffer pH 7.4. Assays performed at moderate ionic strength used the same experimental setup, but proteins were dialyzed against 20 mM sodium phosphate pH 7.4 with 50 mM NaCl. Assays using ANP32A230-249 and ANP32B232-251 peptides were performed by titrating 1 mM peptide solution onto 110 or 150 µM reduced Cc solutions, respectively, or onto 100 µM HuR106-326 solution, following the same injection configuration as described for ANP32A proteins. Cc and HuR106-326 solutions were dialyzed against 10 mM sodium phosphate buffer pH 6.3; peptides were dissolved in the same solution. The stirring speed was set to 200 rpm for HuR106-326 titration experiments and to 300 rpm for Cc titration experiments, to ensure cell homogeneity. ANP32A, ANP32A230-249 and ANP32B232-251 titration data was analyzed using Origin 7.0 (OriginLab), employing a single ligand binding site model or a two ligand binding sites model. In the last case, no binding cooperativity was observed. ANP32A1-167 titration data were processed and analyzed using NanoAnalyze software (TA instruments).

[3] = tested on: recombinant Cc; test: Cc pulldown assay with HEK293T extracts; type: binding; conditions: HEK293T extracts expressing ANP32A-c-myc, Western blot
Experimental: Pulldown assays were performed as previously described.^[ [31] ^] Briefly, transfected HEK293T cells were resuspended in a lysis buffer containing 10 mM Tricine‐NaOH pH 8.5, 1 mM PMSF, and cOmplete protease inhibitors (Roche). Afterward, cells were lysed by sonication (10 s, 10% amplitude, on ice), and the resulting debris was discarded after 15 min of centrifugation at 13300 rpm and 4 °C. More details on the procedure were given in the Supporting Information Appendix.
Pulldown assays were performed as previously described ^[6^]. Briefly, transfected HEK293T cells were resuspended in a lysis buffer containing 10 mM Tricine-NaOH pH 8.5, 1 mM PMSF and cOmplete™ protease inhibitors (Roche). Afterwards, cells were lysed by sonication (10 s, 10% amplitude, on ice), and the resulting debris was discarded after 15 min of centrifugation at 13,300 rpm and 4 °C.
Cc pulldown assays were carried out by incubating cell extracts with 100 µg of recombinant Cc for 16 h at 4 °C in batch. A carboxymethylcellulose matrix (Whatman) was added, and the mixture was incubated for 30 min at 4 °C in batch. To remove possible non-specific binding, the matrix was washed 3 times with 1 mL of washing buffer containing 10 mM Tricine-NaOH pH 8.5, 20 mM NaCl, 1 mM PMSF and cOmplete™ protease inhibitors. […]

[4] = tested on: 15N-labeled Cc; test: NMR titration (1H-15N HSQC) of 15N Cc with ANP32A or ANP32A1-167; type: binding; conditions: low ionic strength; 25 °C
Experimental: NMR titrations of 30 µM ^15N reduced Cc with ^14N ANP32A constructs were followed by 1D ^1H and 2D ^1H-^15N heteronuclear single quantum correlation (HSQC) spectra on a Bruker Avance-III 600 MHz equipped with a cryoprobe at 25 °C. ^15N-labelled reduced Cc (in 10 mM sodium phosphate buffer, pH 7.4) was titrated with increasing amounts of ^14N ANP32A dialyzed against the same buffer. Reduced ^15N Cc and ^14N ANP32A1-167 construct were titrated in 5 mM sodium phosphate buffer pH 6.4. To maintain the redox state of Cc and to adjust the lock signal on the NMR spectrometer, 0.1 mM of sodium ascorbate and 10% of D2O were added, respectively. Data were acquired and processed using TopSpin NMR 3.5pl7 software (Bruker).
Line broadening and chemical-shift perturbation analysis were performed using the Sparky 3 NMR assignment tool (T.D. Goddard and D.G. Kneller, University of California San Francisco, USA). Assignment of ANP32A230-249 and ANP32B232-251 peptides was performed using NMRFAM-SPARKY software distribution (National Magnetic Resonance Facility at Madison) and further imported to CCPNMR ^[1], whereby distance restraints were calculated using its built-in module.

[5] = tested on: histone H3; test: Coimmunoprecipitation of c-myc-ANP32A/B with histone H3; type: binding; conditions: anti-c-myc, Western blot; representative of three experiments
Experimental: HEK293T cells were transfected with a plasmid encoding ANP32A/b-c-myc. 24 h after transfection, cells were collected for lysates preparation in buffer containing 20 mM Tris-HCl pH 7.5, 100 mM NaCl, 0.5% NP40, 0.1 mM PMSF and cOmplete™. Cells were lysed by sonication and precleared by incubation with sepharose-A beads (GE Healthcare, GE17-5280-01) for 1 h at 4 °C. The lysates were then incubated with anti-c-myc (see Pull-down assays) over night at 4 °C and subsequently with sepharose-A beads (GE Healthcare, GE17-5280-01) for 1 h at room temperature with rotation. Following 6 washes with PBS, the samples were resuspended in SDS loading buffer and analyzed by western blotting.

[6] = target: T1, cytochrome c; test: ITC titration of ANP32A/B C-terminal peptides with reduced Cc; conditions: single binding-site model; 1 mM peptide onto 110 or 150 µM reduced Cc; 10 mM sodium phosphate pH 6.3; relative error 20%
Experimental: Isothermal titration calorimetry (ITC) experiments were performed using a Nano ITC Low Volume instrument (TA Instruments, USA). The reference cell was filled with distilled water. Titration experiments between reduced Cc and ANP32A or ANP32A1‐167 consisted of 17 injections of 2.91 µL of a 400 µM reduced Cc solution into the sample cell containing 50 µM ANP32A construct. Both Cc and ANP32A proteins were dialyzed against 10 mM sodium phosphate buffer pH 7.4. Assays performed at moderate ionic strength used the same experimental setup, but proteins were dialyzed against 20 mM sodium phosphate pH 7.4 with 50 mM NaCl. […] ANP32A, ANP32A230‐249 and ANP32B232‐251 titration data were analyzed using Origin 7.0 (OriginLab), employing a single‐ligand binding site model or a two‐ligand binding sites model. […] ANP32A1‐167 titration data was processed and analyzed using NanoAnalyze software (TA instruments).
ITC experiments were performed using a Nano ITC Low Volume instrument (TA Instruments, USA). […] ANP32A, ANP32A230-249 and ANP32B232-251 titration data was analyzed using Origin 7.0 (OriginLab), employing a single ligand binding site model or a two ligand binding sites model. […] ANP32A1-167 titration data were processed and analyzed using NanoAnalyze software (TA instruments).

[7] = low ionic strength 25 mM, first listed of two independent sites, 10 mM sodium phosphate pH 7.4
[8] = low ionic strength 25 mM, second listed of two independent sites, 10 mM sodium phosphate pH 7.4
[9] = moderate ionic strength 100 mM, single site, 20 mM sodium phosphate pH 7.4, 50 mM NaCl
[10] = moderate ionic strength 100 mM, single site, 20 mM sodium phosphate pH 7.4, 50 mM NaCl, error 0.4 kcal/mol

T1 sequence (P99999 whole entry): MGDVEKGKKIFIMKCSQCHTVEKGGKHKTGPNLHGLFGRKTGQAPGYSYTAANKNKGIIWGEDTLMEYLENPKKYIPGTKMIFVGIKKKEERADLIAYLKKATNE

Compound: CC[C@@]1(O)C(=O)OCc2c1cc1n(c2=O)Cc2cc3ccccc3nc2-1 [camptothecin]
Cc-GFP localization after camptothecin, in words [1]: Cc‐GFP translocated into the cell nucleus

n (reaction stoichiometry) [2, 9]: 0.60
ΔG [2, 9]: -6.1 kcal/mol
ΔH [2, 10]: 1.5 kcal/mol
–TΔS [2, 10]: -7.6 kcal/mol
Kd [2, 9]: 32 µM
binding to Cc by ITC, in words ([2]; moderate ionic strength (100 mM)): one of the two binding sites was lost
Compound: ANP32A: full-length recombinant acidic leucine‐rich nuclear phosphoprotein 32 A, histone chaperone
Kd ([2]; low ionic strength 25 mM, first listed of two independent sites, 10 mM sodium phosphate pH 7.4, 400 µM reduced Cc into 50 µM ANP32A): 3.6 µM
n (reaction stoichiometry) [2, 7]: 0.65
ΔG [2, 7]: -7.4 kcal/mol
ΔH ([2]; low ionic strength 25 mM, first listed of two independent sites, 10 mM sodium phosphate pH 7.4, error 0.4 kcal/mol): 0.4 kcal/mol
Kd ([2]; low ionic strength 25 mM, second listed of two independent sites, 10 mM sodium phosphate pH 7.4, 400 µM reduced Cc into 50 µM ANP32A): 34 µM
n (reaction stoichiometry) [2, 8]: 0.65
ΔG [2, 8]: -6.1 kcal/mol
binding to Cc by ITC, in words ([2]; low ionic strength (25 mM)): two molecules of Cc bind the ANP32A LCAR at independent binding sites, with no observed cooperativity
Cc pulldown result, in words [3]: Cc interacts with ANP32A
chemical-shift perturbations of Cc amide signals, in words [4]: specific chemical‐shift perturbations and substantial broadening
coimmunoprecipitation of histone H3, in words [5]: H3 binds both ANP32 proteins in a similar manner

Kd [6]: 190 µM
Compound: EEERGEKRKRETEDEGEDDD [ANP32A230‐249 Q235E/P241T]

Kd [6]: 190 µM
Compound: EEERGQKRKRETEDEGEDDD [ANP32A230‐249 P241T]
